Experimental data from patent publication US20260258115A1 (MAPP BIOPHARMACEUTICAL, published 2026).

B1: ADI-20974 (antibody, V domains shown)
VH: EVQLVESGGGLVKPGGSLRLSCAASGFSFSSYQINWVRQAPGKGLEWVSSISGGSSYTDYADSIKGRFTISRDNAKKSAFLQMKSLRADDTAVYYCARALMATAGGLAFDIWGQGTMVTVSS
VL: QPVLTQPPSVSGAPGQRVTISCTGSGSNIGAGYDVHWYQQVPGTAPKLLILRNTNRPSGVPDRFSGSKSGTSASLAITGLQAEDEADYYCQSYDRSLSVVFGGGTKLTVL
B2: ADI-20964 (antibody, V domains shown)
VH: QVQLVQSGAEVKKPGASVKVSCKASGYTFTHYGISWVRQAPGQGLEWMGWISAYNGNTNYAQKLQGRVTMTTDTSTSTAYMEVRSLRYDDTAVYYCARDVPVEAATSPEFWGQGTLVTVSS
VL: DIVMTQTPLSLPVTLGQPASISCRSSQSLVYSDGNTYLSWFQQRPGQSPRRLIYKVSNRDSGVPNRFSGSGSGTDFTLKISRVEAEDVGVYYCVQNTHWPAYTFGQGTKVEIK
B3: ADI-41818 (antibody, V domains shown)
VH: EVQLVESGGGLVQPGGSLRLSCAASGFTVNTNYMSWVRQAPGKGLEWVSIIYSSGSTSYADSVKGRFTISRDNSENTLYLQMHTLRAEDTAVYYCVRERTPFYYVSSGYWDSWGQGTLVTVSS
VL: EIVLTQSPGTLSLSPGERATLSCRASQSVDSSYLAWYQQKPGQAPRLLIFGASSRATGIPDRFSGSGSGTDFTLTISRLEPEDFAVYYCQQYGFSYTFGQGTKVEIK
B4: ADI-41814 (antibody, V domains shown)
VH: EVQLLESGPTLVKPTQTLTLTCTFSGFSLSTFGVGVGWIRQPPGKALECLALIYWDDDKRYSPSLKSRLTITRDTSKNQVVLTMTNMDPVDTATYYCAHRRSSTVTTGFFDYWGRGTLVTVSS
VL: QPVLTQPPSVSGAPGQRVTVSCTGNSSNIGAGHGAHWYQQLPGTAPKLLIYGSTDRPSGVPDRFFGSQSGTSASLVITELRAEDEADYYCQSFDSSLSIWVFGGGTKLTVL
notes: also called Ab 921; Antibody Number 921
B5: ADI-41817 (antibody, V domains shown)
VH: QVQLVQSGAEVKKPGESLKISCKGPGYSFTTYWIGWVRQMPGKGLEWMGIIYPGDSDTKYSPSFQGQVTITADKSIATAYLQWSRLKASDTAVYYCATVVTYADNIRWFDSWGQGTLVTVSS
VL: QSALTQPASVSGSPGQSITISCTGTSGDVGGYKFVSWYQHHPGKAPKLVIYDVANRPSGVSDRFSGSKSGTTASLTISGLQAEDEADYYCSSYTSSSTYVFGTGTKVTAL
B6: ADI-41610 (antibody, V domains shown)
VH: EVQLLESGGGVVQPGRSLRLSCAASELSFRNYGMHWVRQAPGKGLEWVAVISYDGNDKYYADSVKGRFTISRDNSKKTLYLQMDSLRAEDTAVYYCAKEGAYCGGDCFSSWGQGTLVTVSS
VL: GIQLTQSPSSLSASVGDRVTITCRASQSSSSYLNWYQQKPGKAPKLLIYAASSLQSGVPSRFSGSGSGTDFTLTISSLQPEDFATYYCQQSYSFGGGTKVEIK
notes: also called Ab 884; Antibody Number 884
B7: ADI-41574 (antibody, V domains shown)
VH: QITLKESGPTLVKPTQTLTLTCTFSGFSLSTSGVGVAWIRQPPGKALEWLALIYWDDDKRYSPSLKSRLTITKDTSKNQVVLTMTNMDPVDTATYYCAHSSVYTTPFDYWGQGSLVTVSS
VL: DIQLTQSPSTLSASVGDRVTITCRASQSISDWLAWYQQKPGKAPKLLIYKAFTLESGVPSRFSGSGSGTEFTLTISSLQPDDFATYYCQQYTSYWTFGQGTKVEIK
notes: also called Ab 850; Antibody Number 850
B8: ADI-41576 (antibody, V domains shown)
VH: QVTLKESGPTLVKPTQTLTLSCSFSGFSLSAYAVGVGWIRQPPGKALEWLALIYWDDDKRYSPSLETRLTITKDTSKNQVVLTMTKMDPVDTATYYCVYSYNGYYEYMDVWGNGTTVTVSS
VL: DIVMTQSPATLSLSPGERATLSCRASQSVSNYLAWYQQKPGQAPRLLISGASNRATGIPDRFSGSGSGTDFTLTITTPEPEDFAVYYCQQRNAWPRTFGQGTKVEIK
notes: also called Ab 851; Antibody Number 851
B9: ADI-41582 (antibody, V domains shown)
VH: EVQLVESGPGLVKPSQTLSLTCTVSGGPISSGVYYWSWIRQHPGKGLESIGYIYYSGSTHYNPSLKTRVTISLDTSKNQFSLKLSSVTAADTAVYYCARGCSGGSCYLYAFDIWGQGTTVTVSS
VL: QPVLTQPPSVSVAPGQTARITCGGNNIGTKSVHWYQQKPGQAPLLVVYDDSDRPSGIPERFSGSNSGNTATLTISRVEAGDEADFYCQVWDYATDHVVFGGGTKLTVL
notes: also called Ab 856; Antibody Number 856
B10: ADI-20998 (antibody, V domains shown)
VH: QVQLVQSGGGVVQPGRSLRLSCAASGFTLSTYGMHWVRQAPGKGLEWVAVIYYDESNKFYADSVQGRFTISRDDSKNTLFLQMNSLRAEDTAVYYCARESRPRGYSYSDFDSWGQGTLVTVSS
VL: QPGLTQPRSVSGSPGQSVTISCTGTSSDVGTFNYVSWYQQHPGKAPKLMIYDVNQRPSGVPDRFSGSKSGNTASLTISGLQAEDEADYYCCAYAGYYSFGGGTKLTVL
B11: ADI-14334 (antibody, V domains shown)
VH: EVQLVESGGGLVKPGGSLRLSCAASGVTVSSYYMTWVRQAPGKGLEFISDISSSSTYTNYADSVKGRFTISRDNAKSSLYLQMNNLRAEDTAVYYCARLGITVTGVGYFDLWGRGTLVTVSS
VL: QPGLTQPPSVSGAPGQRVTISCTGSSSNIGAGYDVHWYQQLPGTAPKLLIHDNNNRPSGVPDRFSGSKSGTSASLAITGLQVEDEADYYCQSYDSSLSNYVFGTGTKLTVL
B12: ADI-14583 (antibody, V domains shown)
VH: QVQLVQSGAEVKEPGASVKVSCKASGYTFTNYGISWVRQAPGQGLEWLGWISAYNGNIHYAQKVQGRVTMTTDTSTSTGFMELRSLRSDDTAVYYCAREPPVIAAGDFQHWGQGTLVTVSS
VL: ETTLTQSPLSLPVTLGQPASISCRSSQSLVHSNGNTYLSWFQQRPGQSPRRLIYRVSNRDSGVPDRFSGSGSGTDFTLKISRVEAEDVGLYYCMQGTHWPPDFGQGTRLEIK

biological target: T1, RSV prefusion F (preF), DS-Cav1 stabilized trimer, subtype A (Respiratory Syncytial Virus, subtype A, UniProt P03420 26-513); test: BLI, apparent IgG KD (Table 9A)

Binder	Kd [nM]
B1	0.29
B2	0.36

biological target: T1, RSV prefusion F (preF), DS-Cav1 …; test: BLI, IgG on anti-human IgG sensors, 100 nM antigen, apparent KD

Binder	Kd [nM]
B3	0.676
B4	3.39
B5	6.94

biological target: T2, RSV postfusion F (postF), F ΔFP trimer, subtype A (Respiratory Syncytial Virus, subtype A, UniProt P03420 26-513); test: as above

Binder	Kd [nM]
B3	0.347
B4	0.915
B5	15.8

biological target: RSV prefusion F (preF), DS-Cav1 (Respiratory syncytial virus, UniProt P03420 26-513); test: BLI, IgG on anti-human IgG sensor

Binder	binding result
B6	no binding (tested: 100 nM antigen)
B7	no binding (tested: 100 nM antigen)
B8	no binding (tested: 100 nM antigen)
B9	no binding (tested: 100 nM antigen)

biological target: RSV postfusion F (postF), F ΔFP (Respiratory syncytial virus, UniProt P03420 26-513); test: BLI, IgG on anti-human IgG sensor, 100 nM antigen

Binder	Kd [nM]
B6	0.978
B7	123
B8	1.43
B9	0.911

biological target: T2, RSV postfusion F (postF), F ΔFP trimer, …; test: BLI, IgG (Table 9A)

Binder	binding result
B1	no binding
B2	no binding

biological target: RSV F on RSV-A2 virus (Respiratory syncytial virus, RSV-A2, UniProt P03420 26-574); test: cell-based or functional assay

Binder	Neutralization IC50 (RSV subtype A) [µg/mL]
B6	> 25
B7	> 25
B8	> 25
B9	> 25

biological target: T3, RSV F on RSV subtype A virus (RSV-A2) (Respiratory Syncytial Virus, subtype A, …, UniProt P03420 26-574); test: cell-based or functional assay

Binder	Neutralization IC50 (RSV subtype A) [µg/mL]
B3	> 25
B4	> 25
B5	> 25

biological target: RSV F on RSV subtype B virus (mKate-RSV B 18537) (Respiratory Syncytial Virus, subtype B, …, UniProt P13843 26-574); test: cell-based or functional assay

Binder	neut IC50 (ug/ml) subtype B (graham) [µg/mL]
B1	0.09
B10	> 25
B11	0.11
B2	0.14
B12	0.06

biological target: T3, RSV F on RSV subtype A virus (RSV-A2); test: cell-based or functional assay; remark: another data set of the same source

Binder	Neutralization - RSV A2 IC50 (pM)	neut IC50 (ug/ml) subtype A (graham) [µg/mL]
B1	75.4	0.003
B10	74	0.03
B11	189	0.05
B2	162	0.06
B12	125	0.05
